Laboratory results reported in US20220409550A1.

Key:
[1] = target: murine PD-L1 on CHO-K1 cells (murine) (UniProt Q9EP73); experiment: cell-based or functional assay
[2] = target: murine PD-L1 (50010-M08H, Sino biological) (murine) (UniProt Q9EP73); experiment: SPR
[3] = target: murine PD-L2 (50804-M08H, Sino Biological) (murine) (UniProt Q9WUL5); experiment: SPR
Sequence of murine PD-L2 (50804-M08H, Sino Biological) (murine) (Q9WUL5 20-219, stated change not applied): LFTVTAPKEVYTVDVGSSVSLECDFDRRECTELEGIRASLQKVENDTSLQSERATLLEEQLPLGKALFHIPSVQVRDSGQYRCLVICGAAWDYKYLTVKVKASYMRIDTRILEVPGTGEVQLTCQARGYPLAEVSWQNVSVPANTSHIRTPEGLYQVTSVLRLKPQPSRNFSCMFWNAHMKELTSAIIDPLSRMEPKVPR

Sequence of murine PD-L1 (50010-M08H, Sino biological) (murine) (Q9EP73 19-238, stated change not applied): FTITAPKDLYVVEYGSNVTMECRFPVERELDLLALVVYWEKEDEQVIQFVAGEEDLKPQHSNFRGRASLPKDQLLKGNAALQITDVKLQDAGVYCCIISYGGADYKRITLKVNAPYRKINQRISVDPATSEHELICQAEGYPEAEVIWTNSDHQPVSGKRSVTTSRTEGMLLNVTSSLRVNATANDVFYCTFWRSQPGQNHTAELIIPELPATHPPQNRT
Sequence of murine PD-L1 on CHO-K1 cells (murine) (Q9EP73 19-290): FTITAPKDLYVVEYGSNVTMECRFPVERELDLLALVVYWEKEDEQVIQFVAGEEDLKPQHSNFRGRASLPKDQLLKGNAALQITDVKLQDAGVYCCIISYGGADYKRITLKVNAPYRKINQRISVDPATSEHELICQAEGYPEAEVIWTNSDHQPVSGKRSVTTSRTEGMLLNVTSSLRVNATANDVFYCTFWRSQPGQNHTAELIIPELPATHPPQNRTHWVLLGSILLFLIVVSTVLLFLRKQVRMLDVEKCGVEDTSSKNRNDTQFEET

half maximal effective concentration (EC50), NFAT-mediated luciferase expression, bioluminescent PD-1/PD-L1 blockade bioassay [1]: 761 pM
Kd [2]: 3.81E-10 ?
Kd [3]: 2.07E-9 ?
Substance: PD-1-decorated nanocage (PdNC) (from UniProt P02794 1-183)
